Experimental findings from US20210395344A1 (TWIST BIOSCIENCE, published 2021) are described below.

Where two headings read alike, the source gives them in different places.

Assay [1] deals with T1, SARS-CoV-2 Spike Glycoprotein S1 (subunit 1) (SARS-CoV-2, UniProt P0DTC2 16-685).
T1 construct: also called S1 Monomer; SARS-CoV-2 S1
Nature of the assay: screening phage ELISA, mean. On the technique in general: An ELISA detects its analyte on a solid surface through an enzyme-linked reagent.

Assay [2] concerns the target T1, SARS-CoV-2 Spike Glycoprotein S1 …. Nature of the assay: screening phage ELISA, mean. This is another data set of the same source.
Assay [3] shares this target. Nature of the assay: column Inhibitor IC50 (assay not explained).
Assay [4] shares this target. The experiment in a line: ELISA binding titration.
In assay [5] the target is T2, COVID S1 RBM Fc fusion (Antigen 2) (SARS-CoV-2, UniProt P0DTC2 437-508).
T2 construct: domain: RBM
The experiment in a line: phage ELISA.

Assay [6] deals with T3, S1-Fc (SARS-CoV-2, UniProt P0DTC2 16-685). The experiment in a line: phage ELISA.
For assay [7], the target named is T4, SARS-CoV-2 S1 (antigen of the Carterra SPR kinetics) (SARS-CoV-2, UniProt P0DTC2 16-685). Nature of the assay: Carterra SPR.
Assay [8] concerns the target T4, SARS-CoV-2 S1 (antigen of the Carterra …). The experiment in a line: Carterra SPR. The source holds these as a separate data set.
The target in assay [9] is T2, COVID S1 RBM Fc fusion (Antigen 2). The experiment in a line: phage ELISA. This is another data set of the same source.
The target of assay [10] is T3, S1-Fc. The experiment in a line: phage ELISA. This is another data set of the same source.

B1: 1-52 (antibody, V domains shown)
VH: EVQLLESGGGLVQPGGSLRLSCAASGFTFSNYAMSWVRQAPGKGLEWVSAISGSAGSTYYADSVKGRFTISRDNSKNTLYLQMNSLRAEDTAVYYCARVRQGLRRTWYYFDYWGQGTLVTVSS
VL: QSALTQPASVSGSPGQSITISCTGTSSDVGSSNLVSWYQQHPGKAPKLMIYEGSKRPSGVSNRFSGSKSGNTASLTISGLQAEDEADYYCCSYAGSLYVFGGGTKLTVL
Take B1: the “ELISA (Avg)” value in [1] and in assay [2] was 3.5 in each case. In assay [3], this molecule registered an IC50 of 740 nM.

B2: 1-8 (antibody, V domains shown)
VH: EVQLLESGGGLVQPGGSLRLSCAASGFTFSSYDMSWVRQAPGKGLEWVSVISGSGGSTYYADSVKGRFTISRDNSKNTLYLQMNSLRAEDTAVYYCAKGPLVGWYFDLWGQGTLVTVSS
VL: QSALTQPASVSGSPGQSITISCTGTSNDVGSYNLVSWYQQHPGKAPKLMIYEGSKRPSGVSNRFSGSKSGNTASLTISGLQAEDEADYYCCSYAGSRYVVFGGGTKLTVL
With B2, the “ELISA (Avg)” value in [1] and in assay [2] was 19.3 each time. Besides, it took 97.3 nM to reach half-maximal inhibition in assay [3] (IC50).

B3: 1-5 (antibody, V domains shown)
VH: EVQLLESGGGLVQPGGSLRLSCAASGFTFSSQAMSWVRQAPGKGLEWVSAISGSGGGTYYADSVKGRFTISRDNSKNTLYLQMNSLRAEDTAVYYCAKDRRFGEFDPWGQGTLVTVSS
VL: QSALTQPASVSGSPGQSITISCTGTSSGVGSYNLVSWYQQHPGKAPKLMIYEASKRPSGVSNRFSGSKSGNTASLTISGLQAEDEADYYCCSYAGSYTFAVFGGGTKLTVL
With B3, the “ELISA (Avg)” value in assay [1] and in [2] was 20.6 throughout. The molecule further gave a half-maximal effective concentration (EC50) in [4] of 7.83 nM.

B4: 1-27 (antibody, V domains shown)
VH: EVQLLESGGGLVQPGGSLRLSCAASGFTFSSYAMTWVRQAPGKGLEWVSAISGSGGGTYYADSVKGRFTISRDNSKNTLYLQMNSLRAEDTAVYYCASSSSWQFDYWGQGTLVTVSS
VL: QSALTQPASVSGSPGQSITISCTGTSSYVGHYNLVSWYQQHPGKAPKLMIYEGSRRPSGVSNRFSGSKSGNTASLTISGLQAEDEADYYCCSYAGSYTHYVFGGGTKLTVL
notes: also called variant 1-27
In the case of B4, the “ELISA fold over background” value worked out at 1.6 fold over background in assay [5], 1.3 fold over background in assay [6], 1.6 fold over background in assay [9] and 1.3 fold over background in [10]. Moreover, in assay [7], the affinity, expressed as Kd, was 12.5 nM. For the same molecule, the koff in [7] and in assay [8] was 0.00285 s⁻¹ each time. For the same molecule, the kon in [7] and in [8] was 227000 M⁻¹ s⁻¹ throughout.

B5: 1-10 (antibody, V domains shown)
VH: EVQLLESGGGLVQPGGSLRLSCAASGFTFSSYDMSWVRQAPGKGLEWVSVISGSGGSTYYADSVKGRFTISRDNSKNTLYLQMNSLRAEDTAVYYCAKGPLVGWYFDLWGQGTLVTVSS
VL: QSALTQPASVSGSPGQSITISCTGTSSNVGSYNLVSWYQQHPGKAPKLMIYEGTKRPSGVSNRFSGSKSGNTASLTISGLQAEDEADYYCCSYAGSSSFVVFGGGTKLTVL
B5: the “ELISA (Avg)” value in assay [1] and in assay [2] was 16.9 in each case. In assay [3], this molecule registered an IC50 of 17.7 nM.

B6: 1-31 (antibody, V domains shown)
VH: EVQLLESGGGLVQPGGSLRLSCAASGFTFSSYAMNWVRQAPGKGLEWVSAISGSGGSTFYADSVKGRFTISRDNSKNTLYLQMNSLRAEDTAVYYCTRPPYGDYGDYWGQGTLVTVSS
VL: QSALTQPASVSGSPGQSITISCTGTSSDVGKYNLVSWYQQHPGKAPKLMIYEGSQRPSGVSNRFSGSKSGNTASLTISGLQAEDEADYYCCSYAGSRTPVVFGGGTKLTVL
notes: also called variant 1-31
In the case of B6, the “ELISA fold over background” value in [5] is 1.2 fold over background; in assay [6] it was 15.7 fold over background; in assay [9], 1.2 fold over background; in [10], 15.7 fold over background. The molecule further had an equilibrium dissociation constant (Kd) in [7] of 37.2 nM. Further, the dissociation rate constant (koff) in assay [7] and in [8] was 0.000762 s⁻¹ in each case. The association rate constant (kon) in [7] and in assay [8] was 20500 M⁻¹ s⁻¹ in each case.

B7: 1-9 (antibody, V domains shown)
VH: EVQLLESGGGLVQPGGSLRLSCAASGFTFSSYDMSWVRQAPGKGLEWVSVISGSGGSTYYADSVKGRFTISRDNSKNTLYLQMNSLRAEDTAVYYCAKGPLVGWYFDLWGQGTLVTVSS
VL: QSALTQPASVSGSPGQSITISCTGTSSDVGDYNLVSWYQQHPGKAPKLMIYEGSNRPSGVSNRFSGSKSGNTASLTISGLQAEDEADYYCCSYAGSSSFVVFGGGTKLTVL
As to B7, the “ELISA (Avg)” value in [1] and in assay [2] was 18.5 in each case. In assay [3], half-maximal inhibition (IC50) was put at 282 nM.

B8: 1-28 (antibody, V domains shown)
VH: EVQLLESGGGLVQPGGSLRLSCAASGFTFSSYGMSWVRQAPGKGLEWVSAISGSGGGTYYADSVKGRFTISRDNSKNTLYLQMNSLRAEDTAVYYCASSSSWQFDYWGQGTLVTVSS
VL: QSALTQPASVSGSPGQSITISCTGTSSGVGSYNLVSWYQQHPGKAPKLMIYEGSQRPSGVSNRFSGSKSGNTASLTISGLQAEDEADYYCCSYAGSSTHYVFGGGTKLTVL
notes: also called variant 1-28
With B8, the “ELISA fold over background” value is 1.2 fold over background in [5], 1.1 fold over background in assay [6], 1.2 fold over background in assay [9] and 1.1 fold over background in [10]. The same molecule had a Kd in assay [7] of 73.5 nM. For the same molecule, the koff in assay [7] and in [8] was 9.05 s⁻¹ throughout. The association rate constant (kon) in assay [7] and in [8] was 1.23e+08 M⁻¹ s⁻¹ in each case.

B9: 1-7 (antibody, V domains shown)
VH: EVQLLESGGGLVQPGGSLRLSCAASGFTFSSYDMSWVRQAPGKGLEWVSVISGSGGSTYYADSVKGRFTISRDNSKNTLYLQMNSLRAEDTAVYYCAKGPLVGWYFDLWGQGTLVTVSS
VL: QSALTQPASVSGSPGQSITISCTGTSSDFGSYNLVSWYQQHPGKAPKLMIYEGNKRPSGVSNRFSGSKSGNTASLTISGLQAEDEADYYCCSYAGSSTFVVFGGGTKLTVL
Consider B9, for which the “ELISA (Avg)” value in assay [1] and in assay [2] was 22.5 in each case. For the same molecule, the EC50 in [4] was 95.7 nM.

B10: 1-30 (antibody, V domains shown)
VH: EVQLLESGGGLVQPGGSLRLSCAASGFTFSSYAMTWVRQAPGKGLEWVSAISGSGGSTFYADSVKGRFTISRDNSKNTLYLQMNSLRAEDTAVYYCTRPPYGDYGDYWGQGTLVTVSS
VL: QSALTQPASVSGSPGQSITISCTGTSRDVGSYNLVSWYQQHPGKAPKLMIYEGTKRPSGVSNRFSGSKSGNTASLTISGLQAEDEADYYCCSYAGSRTPVVFGGGTKLTVL
notes: also called variant 1-30
Regarding B10, the “ELISA fold over background” value in [5] was found to be 1.4 fold over background; in assay [6] it was 5.6 fold over background; in assay [9] it was 1.4 fold over background; in assay [10], 5.6 fold over background. For the same molecule, in assay [7], the Kd was determined as 37.2 nM. Besides, the koff in assay [7] and in assay [8] was 0.00164 s⁻¹ in each case. The kon in assay [7] and in assay [8] was 43900 M⁻¹ s⁻¹ in each case.

B11: 1-32 (antibody, V domains shown)
VH: EVQLLESGGGLVQPGGSLRLSCAASGFTFSSYAMYWVRQAPGKGLEWVSAISGSGGSTFYADSVKGRFTISRDNSKNTLYLQMNSLRAEDTAVYYCTRPPYGDYGDYWGQGTLVTVSS
VL: QSALTQPASVSGSPGQSITISCTGTSSDVGGYNLVSWYQQHPGKAPKLMIYEGNKRPSGVSNRFSGSKSGNTASLTISGLQAEDEADYYCCSYAGSSTFPVVFGGGTKLTVL
notes: also called variant 1-32
With B11, the “ELISA fold over background” value in assay [5] is 1.1 fold over background; in assay [6] it was 4 fold over background; in [9] it was 1.1 fold over background; in assay [10], 4 fold over background. In addition, in assay [7], binding was put at a Kd of 57.8 nM. The off-rate constant (koff) in assay [7] and in assay [8] was 0.317 s⁻¹ in each case. For the same molecule, the association rate constant (kon) in assay [7] and in [8] was 5.49e+06 M⁻¹ s⁻¹ in each case.

B12: 1-21 (antibody, V domains shown)
VH: EVQLLESGGGLVQPGGSLRLSCAASGFTFSSYTMSWVRQAPGKGLEWVSIISGSGGSTYYADSVKGRFTISRDNSKNTLYLQMNSLRAEDTAVYYCAREGYRDYLWYFDLWGQGTLVTVSS
VL: QSALTQPASVSGSPGQSITISCTGTSSDVGSNNLVSWYQQHPGKAPKLMIYEGNKRPSGVSNRFSGSKSGNTASLTISGLQAEDEADYYCCSYAGSVVFGGGTKLTVL
Turning to B12, the “ELISA (Avg)” value in assay [1] and in [2] was 47.6 in each case. In addition, the IC50 in assay [3] worked out at 6.7 nM.

B13: 1-51 (antibody, V domains shown)
VH: EVQLLESGGGLVQPGGSLRLSCAASGFTFSSYAMSWVRQAPGKGLEWVSVISGSGGSTYYADSVKGRFTISRDNSKNTLYLQMNSLRAEDTAVYYCAREGYRDYLWYFDLWGQGTLVTVSS
VL: QSALTQPASVSGSPGQSITISCTGTSSDVGSYDLVSWYQQHPGKAPKLMIYEGNKRPSGVSNRFSGSKSGNTASLTISGLQAEDEADYYCCSYAGSSVVFGGGTKLTVL
As to B13, the “ELISA (Avg)” value in assay [1] and in assay [2] was 7.1 throughout. For the same molecule, a half-maximal effect in [4] (EC50) was put at 98.2 nM.

B14: 1-22 (antibody, V domains shown)
VH: EVQLLESGGGLVQPGGSLRLSCAASGFTFSSYAMNWVRQAPGKGLEWVSIISGSGGSTYYADSVKGRFTISRDNSKNTLYLQMNSLRAEDTAVYYCAREGYRDYLWYFDLWGQGTLVTVSS
VL: QSALTQPASVSGSPGQSITISCTGTSTDVGSYNLVSWYQQHPGKAPKLMIYEGSQRPSGVSNRFSGSKSGNTASLTISGLQAEDEADYYCCSYAGSSTVFGGGTKLTVL
In the case of B14, the “ELISA (Avg)” value in assay [1] and in [2] was 40.6 in each case. In assay [3], this molecule showed an IC50 of 73.2 nM. This molecule also gave an EC50 in assay [4] of 6.55 nM.

As usually defined, the IC50 is the point on the concentration scale where inhibition reaches its midpoint. For orientation: EC50 means the concentration giving half of the maximal effect. A low value points to an effect from little substance. A word on the Kd: it is the free concentration of one partner at which half of the binding sites on the other are occupied at equilibrium, for simple one-to-one binding. A lower Kd goes with tighter binding. Usually koff stands for a measure of how fast the partners let go of each other. Read a high koff as a short-lived complex. Broadly, the kon is a measure of how fast the partners come together. A lower kon goes with slow association.
